According to PMC12290011, “Pseudomonadal itaconate degradation gene cluster encodes enzymes for methylsuccinate utilization” (Communications Biology, 2025):

Assays:
[1] = tested on: C=C(CC(=O)O)C(=O)O; test: purified protein; settings: 1 mM succinyl-CoA, pH 7.0, 5 mM MgCl2, 30 °C
Excerpt: (§4) UHPLC assay of CoA-esters on P. aeruginosa itaconate CoA transferase

[2] = tested on: C[C@@H](CC(=O)O)C(=O)O; test: purified protein; settings: 1 mM succinyl-CoA, pH 7.0, 5 mM MgCl2, 30 °C
Excerpt: as §4

[3] = tested on: C[C@H](CC(=O)O)C(=O)O; test: purified protein; settings: 1 mM succinyl-CoA, pH 7.0, 5 mM MgCl2, 30 °C
Excerpt: as §4

[4] = target: T1, Pa. xenovorans MmgE/PrpD family protein Bxe_B2582 (Paraburkholderia xenovorans, UniProt Q13R78); test: coupled assay with C. necator itaconate CoA transferase, UHPLC; format: biochemical; settings: 2.5 mM substrate, pH 7.0, 5 mM MgCl2, 30 °C
T1 construct: pET16b, His-tagged, E. coli BL21(DE3), Ni-NTA purified
T1 sequence (Q13R78 1-494): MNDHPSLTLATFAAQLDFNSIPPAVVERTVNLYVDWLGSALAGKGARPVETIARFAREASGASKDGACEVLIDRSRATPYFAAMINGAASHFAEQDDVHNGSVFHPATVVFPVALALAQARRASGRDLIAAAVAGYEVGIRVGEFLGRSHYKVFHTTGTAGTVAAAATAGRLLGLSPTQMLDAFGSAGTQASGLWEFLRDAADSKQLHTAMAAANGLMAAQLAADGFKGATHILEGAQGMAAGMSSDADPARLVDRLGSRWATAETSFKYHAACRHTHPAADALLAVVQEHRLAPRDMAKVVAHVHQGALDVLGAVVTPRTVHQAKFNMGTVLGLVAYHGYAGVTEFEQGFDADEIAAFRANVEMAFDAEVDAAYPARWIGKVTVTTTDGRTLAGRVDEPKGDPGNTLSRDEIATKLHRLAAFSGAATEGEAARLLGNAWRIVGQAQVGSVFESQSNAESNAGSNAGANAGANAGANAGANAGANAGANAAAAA

[5] = target: T2, P. aeruginosa MmgE/PrpD family protein, (S)-(R)-methylsuccinate isomerase (Pseudomonas aeruginosa, UniProt Q9I564); test: as above; format: biochemical; settings: 2.5 mM substrate, pH 7.0, 5 mM MgCl2, 30 °C
T2 construct: gene PA0881; synthetic codon-optimized gene in pET16b, His-tagged, E. coli BL21(DE3), Ni-NTA purified
T2 sequence (Q9I564 1-450): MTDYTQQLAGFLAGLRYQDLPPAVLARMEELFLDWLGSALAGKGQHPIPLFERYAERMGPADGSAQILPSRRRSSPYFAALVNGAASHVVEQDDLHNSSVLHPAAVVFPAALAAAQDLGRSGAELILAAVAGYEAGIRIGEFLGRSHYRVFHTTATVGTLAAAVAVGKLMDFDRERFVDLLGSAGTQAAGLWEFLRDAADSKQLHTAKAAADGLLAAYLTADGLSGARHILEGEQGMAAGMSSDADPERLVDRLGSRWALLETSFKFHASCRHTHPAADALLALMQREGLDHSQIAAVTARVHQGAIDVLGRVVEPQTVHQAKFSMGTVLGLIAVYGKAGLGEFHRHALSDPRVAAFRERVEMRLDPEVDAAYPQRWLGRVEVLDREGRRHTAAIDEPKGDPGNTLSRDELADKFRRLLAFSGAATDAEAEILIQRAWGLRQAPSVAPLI

[6] = target: T3, C. necator MmgE/PrpD family protein, (S)-(R)-methylsuccinate isomerase (Cupriavidus necator, UniProt Q0K3E6); test: as above; format: biochemical; settings: 2.5 mM substrate, pH 7.0, 5 mM MgCl2, 30 °C
T3 construct: gene prpD2; synthetic codon-optimized gene in pET16b, His-tagged, E. coli BL21(DE3), Ni-NTA purified
T3 sequence (Q0K3E6 1-460): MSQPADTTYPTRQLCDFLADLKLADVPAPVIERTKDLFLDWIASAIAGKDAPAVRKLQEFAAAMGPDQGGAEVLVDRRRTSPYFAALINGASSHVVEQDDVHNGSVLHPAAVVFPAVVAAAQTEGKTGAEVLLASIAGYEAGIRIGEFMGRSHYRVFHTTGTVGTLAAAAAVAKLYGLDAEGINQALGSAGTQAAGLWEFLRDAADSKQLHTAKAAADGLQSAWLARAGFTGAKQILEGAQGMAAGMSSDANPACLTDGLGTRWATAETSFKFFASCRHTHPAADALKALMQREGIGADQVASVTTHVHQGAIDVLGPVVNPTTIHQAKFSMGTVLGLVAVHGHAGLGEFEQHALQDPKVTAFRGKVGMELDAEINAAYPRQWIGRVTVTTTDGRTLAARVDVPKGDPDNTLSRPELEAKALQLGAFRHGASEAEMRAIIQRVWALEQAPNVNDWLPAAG

[7] = substrate: C[C@@H](CC(=O)SCCNC(=O)CCNC(=O)[C@H](O)C(C)(C)COP(=O)(O)OP(=O)(O)OC[C@H]1O[C@@H](n2cnc3c(N)ncnc32)[C@H](O)[C@@H]1OP(=O)(O)O)C(=O)O; test: UHPLC assay of mesaconyl-CoA formation; format: biochemical, Cupriavidus necator; settings: 1 mM phenazine methosulfate as electron acceptor, pH 7.0, 5 mM MgCl2, 30 °C
Excerpt: (§1) UHPLC assay of mesaconyl-CoA formation on C. necator methylsuccinyl-C4-CoA dehydrogenase

[8] = substrate: C[C@H](CC(=O)SCCNC(=O)CCNC(=O)[C@H](O)C(C)(C)COP(=O)(O)OP(=O)(O)OC[C@H]1O[C@@H](n2cnc3c(N)ncnc32)[C@H](O)[C@@H]1OP(=O)(O)O)C(=O)O; test: UHPLC assay of mesaconyl-CoA formation; format: biochemical, Cupriavidus necator; settings: 1 mM phenazine methosulfate as electron acceptor, pH 7.0, 5 mM MgCl2, 30 °C
Excerpt: as §1

[9] = substrate: O=C(O)C[C@H](O)C(=O)O; test: purified protein; settings: 1 mM succinyl-CoA, pH 7.0, 5 mM MgCl2, 30 °C
[10] = substrate: C=C(CC(=O)O)C(=O)O; test: UHPLC assay of CoA-esters; format: biochemical, Cupriavidus necator; settings: 1 mM succinyl-CoA, pH 7.0, 5 mM MgCl2, 30 °C
Excerpt: (§2) UHPLC assay of CoA-esters on C. necator itaconate CoA transferase

[11] = substrate: CC(C)(COP(=O)(O)OP(=O)(O)OC[C@H]1O[C@@H](n2cnc3c(N)ncnc32)[C@H](O)[C@@H]1OP(=O)(O)O)[C@@H](O)C(=O)NCCC(=O)NCCSC(=O)CCC(=O)O; test: UHPLC assay of CoA-esters; format: biochemical, Cupriavidus necator; settings: 10 mM itaconate, pH 7.0, 5 mM MgCl2, 30 °C
Excerpt: as §2

[12] = substrate: C[C@@H](CC(=O)O)C(=O)O; test: UHPLC assay of CoA-esters; format: biochemical, Cupriavidus necator; settings: 1 mM succinyl-CoA, pH 7.0, 5 mM MgCl2, 30 °C
Excerpt: as §2

[13] = substrate: C[C@H](CC(=O)O)C(=O)O; test: UHPLC assay of CoA-esters; format: biochemical, Cupriavidus necator; settings: 1 mM succinyl-CoA, pH 7.0, 5 mM MgCl2, 30 °C
Excerpt: as §2

[14] = substrate: C[C@](O)(CC(=O)O)C(=O)O; test: UHPLC assay of CoA-esters; format: biochemical, Cupriavidus necator; settings: 1 mM succinyl-CoA, pH 7.0, 5 mM MgCl2, 30 °C
Excerpt: as §2

[15] = substrate: O=C(O)CCCC(=O)O; test: UHPLC assay of CoA-esters; format: biochemical, Cupriavidus necator; settings: 1 mM succinyl-CoA, pH 7.0, 5 mM MgCl2, 30 °C
Excerpt: as §2

[16] = substrate: C[C@@H](CC(=O)SCCNC(=O)CCNC(=O)[C@H](O)C(C)(C)COP(=O)(O)OP(=O)(O)OC[C@H]1O[C@@H](n2cnc3c(N)ncnc32)[C@H](O)[C@@H]1OP(=O)(O)O)C(=O)O; test: UHPLC assay of mesaconyl-CoA formation; format: biochemical, Pseudomonas aeruginosa; settings: 1 mM phenazine methosulfate as electron acceptor, pH 7.0, 5 mM MgCl2, 30 °C
Excerpt: (§3) UHPLC assay of mesaconyl-CoA formation on P. aeruginosa methylsuccinyl-C4-CoA dehydrogenase

[17] = substrate: C[C@H](CC(=O)SCCNC(=O)CCNC(=O)[C@H](O)C(C)(C)COP(=O)(O)OP(=O)(O)OC[C@H]1O[C@@H](n2cnc3c(N)ncnc32)[C@H](O)[C@@H]1OP(=O)(O)O)C(=O)O; test: UHPLC assay of mesaconyl-CoA formation; format: biochemical, Pseudomonas aeruginosa; settings: 1 mM phenazine methosulfate as electron acceptor, pH 7.0, 5 mM MgCl2, 30 °C
Excerpt: as §3

P. aeruginosa itaconate CoA transferase (Pseudomonas aeruginosa PAO1)
Km [1]: 0.8 ± 0.3 mM | Vmax [1]: 73 µmol/min/mg | kcat/Km [1]: 66300 M⁻¹ s⁻¹ | Km [2]: 17.8 ± 8.0 mM | Vmax [2]: 54.3 µmol/min/mg | kcat/Km [2]: 2200 M⁻¹ s⁻¹ | Km [3]: 0.6 ± 0.2 mM | Vmax [3]: 69.8 µmol/min/mg | kcat/Km [3]: 88000 M⁻¹ s⁻¹

C[C@H](CC(=O)O)C(=O)O [(R)-Methylsuccinate]
coupled assay with C. necator itaconate CoA transferase, UHPLC [4]: we tested the isomerase activity of the Pa. xenovorans MmgE/PrpD family protein Bxe_B2582 | coupled assay with C. necator itaconate CoA transferase, UHPLC [5]: both MmgE/PrpD proteins catalyzed the isomerization of (S)-methylsuccinate to (R)-methylsuccinate | coupled assay with C. necator itaconate CoA transferase, UHPLC [6]: both MmgE/PrpD proteins catalyzed the isomerization of (S)-methylsuccinate to (R)-methylsuccinate

C[C@@H](CC(=O)O)C(=O)O [(S)-Methylsuccinate]
coupled assay with C. necator itaconate CoA transferase, UHPLC [4]: we tested the isomerase activity of the Pa. xenovorans MmgE/PrpD family protein Bxe_B2582 | coupled assay with C. necator itaconate CoA transferase, UHPLC [5]: both MmgE/PrpD proteins catalyzed the isomerization of (S)-methylsuccinate to (R)-methylsuccinate | coupled assay with C. necator itaconate CoA transferase, UHPLC [6]: both MmgE/PrpD proteins catalyzed the isomerization of (S)-methylsuccinate to (R)-methylsuccinate

B1: C. necator methylsuccinyl-C4-CoA dehydrogenase (Cupriavidus necator H16) (protein)
chain: MHAHQDPDQLYPEIREAVRDLCAGFDSAYWQRVEEQNAFPETFVQALTQAGWLSALIPEAYGGSGLSLTAASVIMEEINRSGGNSGACHGQMYVMGCLLRHGSEAQKQRWLPGIASGELRMQSMAVTEPTTGTDTTKLKTTAVRQGDKYIVNGQKVWISRVQHSDLMLLLARTTPLDQVKRKSEGLSVFVVDLRDAIGKGLTVKPIRNMVNHETNELFFDNLEVPAGNLIGEEGKGLKYILDGLNAERILIAAECIGDGYWFVERASNYARDRIVFDRPIGQNQAVQFPIARSYINVEAASLMRYKASQLFDAGKPCGKEANISKLLAADASWEAANVCLQTHGGFGFAAEYDIERKFRETRLYQVAPISTNLILSYVAEHVLELPRSF
notes: pET23b, His-tagged, E. coli BL21(DE3), Ni-NTA purified with FAD in buffers
Km [7]: 0.42 ± 0.14 mM | Vmax [7]: 0.69 µmol/min/mg | kcat/Km [7]: 1200 M⁻¹ s⁻¹ | Km [8]: 0.36 ± 0.08 mM | Vmax [8]: 0.72 µmol/min/mg | kcat/Km [8]: 1500 M⁻¹ s⁻¹

B2: C. necator itaconate CoA transferase (Cupriavidus necator H16) (protein)
chain: MSHSPKGIRPLDGIRVVSLEHAVAAPFATRQLADLGARVIKIERPGVGDFARGYDQSVHGQASYFVWLNRGKESLTLDLKDREAQAILHRLLADADVLVQNLAPGAAVRMGLDFDSLHGKYDKLIVCDISGYGDSGPYRDKKAYDLLIQAAAGLVGLTGGPNEPSRAGVSIADISAGMYAYSGILSALLQRGRTGKGLRVQVTMLEAMAEWMNQVLYFGHYGGKPPGRFGASHPTIAPYGVHRTGNGSVIFSVQNEREFANFCEIVLGNRELAQDERFSSNTARVHNRPELTAIIEERFAPMTVAQAEALLDEAQIANAPMNDIEGVWNHPQLQARQRWREVATPGGPIGALLPPANLSGVEPVMGDVPALGAHSRQILAELGYDDGDIAALADKRTI
notes: pET16b, N-terminal His-tag, E. coli BL21(DE3), Ni-NTA purified
Km [9]: 42.8 ± 17.2 mM | Vmax [9]: 1.1 µmol/min/mg | kcat/Km [9]: 20 M⁻¹ s⁻¹ | Km [10]: 4.0 ± 1.7 mM | Vmax [10]: 53.2 µmol/min/mg | kcat/Km [10]: 9500 M⁻¹ s⁻¹ | Km [11]: 0.76 ± 0.2 mM | Vmax [11]: 116 µmol/min/mg | kcat/Km [11]: 109000 M⁻¹ s⁻¹ | Km [12]: 35.6 ± 3.2 mM | Vmax [12]: 35.6 µmol/min/mg | kcat/Km [12]: 700 M⁻¹ s⁻¹ | Km [13]: 0.9 ± 0.1 mM | Vmax [13]: 82 µmol/min/mg | kcat/Km [13]: 65200 M⁻¹ s⁻¹ | Km [14]: 15.6 ± 2.3 mM | Vmax [14]: 10.2 µmol/min/mg | kcat/Km [14]: 500 M⁻¹ s⁻¹ | Km [15]: 37.4 ± 8.9 mM | Vmax [15]: 3.2 µmol/min/mg | kcat/Km [15]: 60 M⁻¹ s⁻¹

B3: P. aeruginosa methylsuccinyl-C4-CoA dehydrogenase (Pseudomonas aeruginosa PAO1) (protein)
chain: MNPNSEELNAIREGVRALCAEFDAAYWRRIDEQRGFPEAFVKALTDAGWLSAMIPEEYGGSGLGLAEASVILEEVNRCGGNSGTVHGQMYNMFTLLRNGSEAQKRFYLPKLASGELRLQSMGVTEPTTGTDTTKIKTTAVRKGDRYVINGQKVWISRIQHSDLMILLARTTPLAEVKRKSEGMSIFLVDLREAIGKGLTVQPIANMVNHETNELFFDNLEIPADSLIGEEGKGFRYILDGLNAERTLIAAECIGDGRWFIDKASHYARDRVVFGRPIGQNQGVQFPIAEAHIEVEAADLMRWRACQEYDAGLNAGASANMAKYLAAKASWEAANACLQTHGGFGFACEYDVERKFRETRLYQVAPISTNLILSYVAEHLLELPRSF
notes: synthetic codon-optimized gene in pET23a, His-tagged, E. coli BL21(DE3), Ni-NTA purified with FAD in buffers
Km [16]: 0.47 ± 0.13 mM | Vmax [16]: 2.8 µmol/min/mg | kcat/Km [16]: 4300 M⁻¹ s⁻¹ | Km [17]: 0.59 ± 0.14 mM | Vmax [17]: 3.38 µmol/min/mg | kcat/Km [17]: 4100 M⁻¹ s⁻¹
